Patent US12357802B2, “Self-actuating articles” (priority 2017, dated 2025)

Test system: Micrococcus lysodeikticus cells
Assay: Lysozyme enzyme activity assay of dissolved micropost tips
Format: biochemical
Conditions: micropost tips 80% lysozyme and 20% PEO 200 k, vs uncompressed powder
Protocol: To measure the activity of lysozyme, the assay provided by Sigma Aldrich was used which measures the amount of lysed Micrococcus lysodeikticus cells. Briefly, a 200 unit/mL Lysozyme solution in 50 mM Potassium Phosphate Buffer was added to a 0.015% [w/v]Micrococcus lysodeikticus cell suspension in the same buffer. The decrease was recorded in A450 over 5 minutes. Nine micropost tips were fabricated from 80% lysozyme and 20% PEO 200 k and dissolved sets of three micropost tips together. Triplicate assays were performed on each dissolved solution for a total of nine tests and the results were compared to the results of a solution made with lysozyme that was not compressed into a micropost tip.

Substance: lysozyme
- enzymatic activity after the manufacturing process: maintain their activity
